Substitutions are numbered along the chain they refer to.
What was measured:
[1] = target: P. aeruginosa type I-F Cascade complex (Cas5f1, Cas6f, six copies of Cas7f1, Cas8f1 and a 60 nt crRNA) (UniProt Q02MM2); assay: SEC followed by SDS-PAGE, band intensity quantified; details: parent: est. 100; read off a plot
[2] = target: AcrIF24 R221W; assay: SEC-MALS; details: parent: 55.76
[3] = target: AcrIF24 T129W; assay: SEC-MALS; details: parent: 55.76
[4] = target: AcrIF24 Y128K/Y217W double mutant; assay: SEC-MALS; details: parent: 55.76
[5] = target: the molecule itself; assay: SEC-MALS; Superdex 200 Increase 10/300 GL, SEC buffer (20 mM Tris-HCl pH 8.0, 150 mM NaCl), 0.4 ml/min, 20°C; DAWN-TREOS detector
[6] = target: T1, AcrIF24 wild type (Pseudomonas aeruginosa prophage, UniProt A0AA82WNY5 1-228); assay: EMSA; EMSA-P: 10 mM HEPES pH 7.5, 1 mM MgCl2, 20 mM KCl, 1 mM TCEP, 5% glycerol, 30 min on ice; 10% native 0.5x TBE gel, SYBR Gold; Cascade EMSA buffer not in material; details: protein: recombinant, chain copies: 2, label: none (SYBR Gold stain)
T1 sequence: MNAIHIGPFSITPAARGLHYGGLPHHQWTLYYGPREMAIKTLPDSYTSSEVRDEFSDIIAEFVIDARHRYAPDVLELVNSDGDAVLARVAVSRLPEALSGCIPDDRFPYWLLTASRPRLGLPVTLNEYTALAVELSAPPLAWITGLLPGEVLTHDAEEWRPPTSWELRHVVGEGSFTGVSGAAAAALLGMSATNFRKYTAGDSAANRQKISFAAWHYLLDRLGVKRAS

[7] = target: T1, AcrIF24 wild type; assay: EMSA; concentration-dependent; EMSA-P: 10 mM HEPES pH 7.5, 1 mM MgCl2, 20 mM KCl, 1 mM TCEP, 5% glycerol, 30 min on ice; 10% native 0.5x TBE gel, SYBR Gold; Cascade EMSA buffer not in material; details: protein: recombinant; chain copies: 2; label: none (SYBR Gold stain); blunt

For “AcrIF24 (wildtype, full length, residues 1-228) D105K”, the percent of parent [1] was 98%.

In the case of “AcrIF24 (wildtype, full length, residues 1-228) G22Y”, the percent of parent [1] is reported as 98%.

Molecule “AcrIF24 (wildtype, full length, residues 1-228) G189K” has a percent of parent [1] of 88%.

For “AcrIF24 (wildtype, full length, residues 1-228) R221W”, the other: MW (kDa) by SEC-MALS [2] was 52.4 kDa.

“AcrIF24 (wildtype, full length, residues 1-228) T129W” showed an other: MW (kDa) by SEC-MALS [3] of 53.9 kDa.

“AcrIF24 (wildtype, full length, residues 1-228) W110K” showed a percent of parent [1] of 11%.

Work on “AcrIF24 (wildtype, full length, residues 1-228) Y128K; Y217W” yielded an other: MW (kDa) by SEC-MALS [4] of 39.6 kDa.

B1: AcrIF24 (wildtype, full length, residues 1-228) (natural protein)
chain: T1 sequence
With B1 the “stoichiometry N” value [5] was 2.

B2: IR-S (dsDNA)
DNA 1: TAGCTCGATTCGAGCTA
DNA 2: TAGCTCGAATCGAGCTA
B2: binds ([6]; blunt).

B3: IR-L (dsDNA)
DNA 1: CAGAATATCATTGCATAGCTCGATTCGAGCTAATATAGTAATACCAACAGCGCGGCACACCGCCAGCACTGAACCT
DNA 2: AGGTTCAGTGCTGGCGGTGTGCCGCGCTGTTGGTATTACTATATTAGCTCGAATCGAGCTATGCAATGATATTCTG
B3: binds [7].

B4: IR-L half-site mutant (dsDNA)
DNA 1: B3 DNA 1 with T16G, A17C, G18A, C19T, T20G, C21A, G22T, A23C
DNA 2: B3 DNA 2 with T54G, C55A, G56T, A57C, G58A, C59T, T60G, A61C
B4: no binding [6].

B5: IR-S half-site mutant (dsDNA)
DNA 1: GCATGATCTTCGAGCTA
DNA 2: TAGCTCGAAGATCATGC
B5: no binding [6].

From article PMC9638941, “Molecular basis of dual anti-CRISPR and auto-regulatory functions of AcrIF24” (Nucleic Acids Research, 2022)
